Experimental findings from article PMC7884425 (2021) are described below.

To fix the notation:
B2: human PARP1-CAT ΔHD (661-678-GSGSGSGG-787-1014) (domain or fragment)
chain: TKSKLPKPVQDLIKMIFDGSGSGSGGKDPIDVNYEKLKTDIKVVDRDSEEAEIIRKYVKNTHATTHNAYDLEVIDIFKIEREGECQRYKPFKQLHNRRLLWHGSRTTNFAGILSQGLRIAPPEAPVTGYMFGKGIYFADMVSKSANYCHTSQGDPIGLILLGEVALGNMYELKHASHISKLPKGKHSVKGLGKTTPDPSANISLDGVDVPLGTGISSGVNDTSLLYNEYIVYDIAQVNLKYLLKLKFNFKTSLW

The target in assay [1] is B2. Put plainly: ITC; replicate 2. (In general: In ITC the heat of successive injections is recorded.)
Assay [2] has as its target PARP1 D756A (human, UniProt P09874 1-1014, D756A). Put plainly: ITC; in the presence of DNA.
Assay [3] addresses T1, human HPF1 E138K (human, UniProt Q9NWY4 1-346, E138K).
T1 sequence: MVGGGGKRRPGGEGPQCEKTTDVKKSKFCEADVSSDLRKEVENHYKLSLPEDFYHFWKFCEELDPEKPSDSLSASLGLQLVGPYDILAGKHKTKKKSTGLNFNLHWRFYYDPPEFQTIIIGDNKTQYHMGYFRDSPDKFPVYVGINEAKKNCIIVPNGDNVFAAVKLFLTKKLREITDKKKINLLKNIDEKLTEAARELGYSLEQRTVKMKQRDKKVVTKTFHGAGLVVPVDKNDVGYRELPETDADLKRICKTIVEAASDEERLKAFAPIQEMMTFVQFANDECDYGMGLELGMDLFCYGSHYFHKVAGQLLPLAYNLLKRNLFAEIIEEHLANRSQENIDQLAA
Put plainly: ITC; replicate 1.

For assay [4], the target named is T2, human HPF1 F139S (human, UniProt Q9NWY4 1-346, F139S).
T2 sequence: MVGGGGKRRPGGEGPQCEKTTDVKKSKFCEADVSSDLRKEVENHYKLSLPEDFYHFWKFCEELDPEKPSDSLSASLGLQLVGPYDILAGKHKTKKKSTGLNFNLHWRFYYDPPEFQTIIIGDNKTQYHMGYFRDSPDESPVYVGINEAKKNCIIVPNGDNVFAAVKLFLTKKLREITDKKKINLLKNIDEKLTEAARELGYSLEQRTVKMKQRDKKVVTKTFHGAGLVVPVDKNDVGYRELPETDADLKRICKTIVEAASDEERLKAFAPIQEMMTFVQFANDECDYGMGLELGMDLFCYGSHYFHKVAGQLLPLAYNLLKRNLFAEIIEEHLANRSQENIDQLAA
Put plainly: ITC; replicate 1.

Assay [5] deals with T3, human HPF1 F280A (human, UniProt Q9NWY4 1-346, F280A).
T3 sequence: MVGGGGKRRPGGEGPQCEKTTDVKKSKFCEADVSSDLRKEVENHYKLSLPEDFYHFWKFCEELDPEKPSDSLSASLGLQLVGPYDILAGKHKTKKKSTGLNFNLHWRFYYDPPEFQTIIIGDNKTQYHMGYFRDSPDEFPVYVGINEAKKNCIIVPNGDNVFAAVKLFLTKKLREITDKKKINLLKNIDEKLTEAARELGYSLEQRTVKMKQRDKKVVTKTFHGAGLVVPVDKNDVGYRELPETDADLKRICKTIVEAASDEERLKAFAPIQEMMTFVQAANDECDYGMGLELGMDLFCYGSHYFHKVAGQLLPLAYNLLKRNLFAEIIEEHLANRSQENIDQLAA
Put plainly: ITC; replicate 2.

In assay [6] the target is T4, human HPF1 K307S (human, UniProt Q9NWY4 1-346, K307S).
T4 sequence: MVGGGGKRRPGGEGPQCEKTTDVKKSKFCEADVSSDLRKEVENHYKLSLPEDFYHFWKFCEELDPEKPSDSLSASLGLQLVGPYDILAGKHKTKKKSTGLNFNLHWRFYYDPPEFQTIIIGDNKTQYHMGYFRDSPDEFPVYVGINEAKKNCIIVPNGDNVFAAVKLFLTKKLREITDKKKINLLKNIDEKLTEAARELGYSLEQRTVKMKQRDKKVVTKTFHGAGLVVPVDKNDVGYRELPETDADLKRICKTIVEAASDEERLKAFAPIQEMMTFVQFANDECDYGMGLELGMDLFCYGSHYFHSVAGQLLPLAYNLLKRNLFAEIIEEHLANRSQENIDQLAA
Put plainly: ITC; replicate 2.

The target in assay [7] is T5, human HPF1 R239A (human, UniProt Q9NWY4 1-346, R239A).
T5 sequence: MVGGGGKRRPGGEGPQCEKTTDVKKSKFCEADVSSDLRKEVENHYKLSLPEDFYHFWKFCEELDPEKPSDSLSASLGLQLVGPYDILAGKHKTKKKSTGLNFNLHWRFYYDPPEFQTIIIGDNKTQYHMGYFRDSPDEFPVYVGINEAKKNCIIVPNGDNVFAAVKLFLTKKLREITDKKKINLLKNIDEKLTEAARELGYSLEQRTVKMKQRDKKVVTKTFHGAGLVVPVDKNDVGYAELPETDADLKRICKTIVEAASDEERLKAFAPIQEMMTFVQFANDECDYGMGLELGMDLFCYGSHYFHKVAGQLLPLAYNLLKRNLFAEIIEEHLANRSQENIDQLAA
Put plainly: ITC; replicate 2.

Assay [8] has as its target T3, human HPF1 F280A. Put plainly: ITC; replicate 1.
Assay [9] has as its target T4, human HPF1 K307S. Put plainly: ITC; replicate 1.
In assay [10] the target is T5, human HPF1 R239A. Put plainly: ITC; replicate 1.
For assay [11], the target named is T1, human HPF1 E138K. Put plainly: ITC; replicate 2.
Assay [12] addresses T6, human HPF1 K216E (human, UniProt Q9NWY4 1-346, K216E).
T6 sequence: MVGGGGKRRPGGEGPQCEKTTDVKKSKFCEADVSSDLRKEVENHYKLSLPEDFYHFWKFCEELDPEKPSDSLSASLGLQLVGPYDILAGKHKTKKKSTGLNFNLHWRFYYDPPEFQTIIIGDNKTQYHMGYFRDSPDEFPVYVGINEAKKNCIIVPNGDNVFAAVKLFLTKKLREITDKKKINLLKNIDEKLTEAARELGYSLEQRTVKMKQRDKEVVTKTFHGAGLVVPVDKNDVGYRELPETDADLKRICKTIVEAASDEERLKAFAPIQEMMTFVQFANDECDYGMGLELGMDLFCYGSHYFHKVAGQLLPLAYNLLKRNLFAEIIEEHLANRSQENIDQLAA
Put plainly: ITC; replicate 2.

The target in assay [13] is T2, human HPF1 F139S. Put plainly: ITC; replicate 2.

B1: human HPF1 (histone PARylation factor 1), wild-type (natural protein)
chain: MVGGGGKRRPGGEGPQCEKTTDVKKSKFCEADVSSDLRKEVENHYKLSLPEDFYHFWKFCEELDPEKPSDSLSASLGLQLVGPYDILAGKHKTKKKSTGLNFNLHWRFYYDPPEFQTIIIGDNKTQYHMGYFRDSPDEFPVYVGINEAKKNCIIVPNGDNVFAAVKLFLTKKLREITDKKKINLLKNIDEKLTEAARELGYSLEQRTVKMKQRDKKVVTKTFHGAGLVVPVDKNDVGYRELPETDADLKRICKTIVEAASDEERLKAFAPIQEMMTFVQFANDECDYGMGLELGMDLFCYGSHYFHKVAGQLLPLAYNLLKRNLFAEIIEEHLANRSQENIDQLAA
On to B1, for which the figures for the Ka in assay [1] and in [2] were 642000 M⁻¹ and 333000 M⁻¹, respectively.
Consider B2, for which the Ka in assay [3] stood at 617000 M⁻¹; in assay [4], 400000 M⁻¹; in assay [5] it was 212000 M⁻¹; in assay [6], 123000 M⁻¹; in [7], 402000 M⁻¹; in assay [8], 147000 M⁻¹. Moreover, the Ka came out at 95700 M⁻¹ in assay [9]; 432000 M⁻¹ in [10]; 583000 M⁻¹ in [11]; 725000 M⁻¹ in assay [12]; 440000 M⁻¹ in assay [13].
